The values below come from article PMC9482650, “Quantitative fragmentomics allow affinity mapping of interactomes” (Nature Communications, 2022).

Among the targets are Inadl_9, Q8NI35; MAGI2_5, Q86UL8; Inadl_4, Q8NI35; MAGI1_2, Q96QZ7; DLG1_3, Q12959; DLG1_1, Q12959; Inadl_3, Q8NI35; DLG4_1, P78352.
Assay in all cases: holdup assay
Common to all, as to parameters: key: below the threshold = too weak to quantify, mostly under pKd 3.1 to 4

The next assay addresses T1, TIAM2, Q8IVF5.
T1 sequence (Q8IVF5 885-986, limits assumed, looked up): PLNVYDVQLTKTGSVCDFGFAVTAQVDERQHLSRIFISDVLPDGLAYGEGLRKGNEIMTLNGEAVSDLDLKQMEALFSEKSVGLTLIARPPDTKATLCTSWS

In another assay the target is T2, GRIP1_2, Q9Y3R0.
T2 sequence (Q9Y3R0 145-248, limits assumed, looked up): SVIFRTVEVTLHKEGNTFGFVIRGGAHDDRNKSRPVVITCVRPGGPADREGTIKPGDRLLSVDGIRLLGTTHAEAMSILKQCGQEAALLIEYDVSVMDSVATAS

The target of a further assay is T3, PDZD7_3, Q9H5P4.
T3 sequence (Q9H5P4 857-944, limits assumed, looked up): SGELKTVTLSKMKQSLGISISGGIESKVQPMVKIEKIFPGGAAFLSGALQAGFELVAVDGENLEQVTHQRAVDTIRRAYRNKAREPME

The next assay addresses T4, RAPGEF6, Q8TEU7.
T4 sequence (Q8TEU7 525-625, limits assumed, looked up): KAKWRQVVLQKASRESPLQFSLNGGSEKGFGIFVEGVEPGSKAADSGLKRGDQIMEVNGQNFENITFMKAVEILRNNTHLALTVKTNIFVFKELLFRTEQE

In another assay the target is T5, GRIP1_3, Q9Y3R0.
T5 sequence (Q9Y3R0 247-346, limits assumed, looked up): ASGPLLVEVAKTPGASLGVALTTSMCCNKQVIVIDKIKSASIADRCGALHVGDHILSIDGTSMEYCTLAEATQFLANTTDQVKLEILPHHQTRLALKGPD

Another assay has as its target T6, TX1BP3, O14907.
T6 sequence (O14907 10-122, limits assumed, looked up): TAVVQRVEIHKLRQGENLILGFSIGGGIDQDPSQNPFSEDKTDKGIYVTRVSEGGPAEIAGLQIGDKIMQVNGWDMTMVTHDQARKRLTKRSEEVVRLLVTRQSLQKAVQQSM

For the next assay, the target named is T7, LIN7C, Q9NUP9.
T7 sequence (Q9NUP9 88-185, limits assumed, looked up): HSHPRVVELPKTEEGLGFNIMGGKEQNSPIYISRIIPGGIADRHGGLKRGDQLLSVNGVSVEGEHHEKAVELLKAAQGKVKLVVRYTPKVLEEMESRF

In another assay the target is T8, DFNB31_3, Q9P202.
T8 sequence (Q9P202 811-907, limits assumed, looked up): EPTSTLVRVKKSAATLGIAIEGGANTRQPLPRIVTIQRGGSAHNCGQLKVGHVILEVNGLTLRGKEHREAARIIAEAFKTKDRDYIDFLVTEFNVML

A further assay deals with T9, HTRA4, P83105.
T9 sequence (P83105 378-476, limits assumed, looked up): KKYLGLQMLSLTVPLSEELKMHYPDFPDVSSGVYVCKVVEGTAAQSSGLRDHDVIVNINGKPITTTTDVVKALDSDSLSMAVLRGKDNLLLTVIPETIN

A further assay addresses T10, APBA1_1, Q02410.
T10 sequence (Q02410 651-752, limits assumed, looked up): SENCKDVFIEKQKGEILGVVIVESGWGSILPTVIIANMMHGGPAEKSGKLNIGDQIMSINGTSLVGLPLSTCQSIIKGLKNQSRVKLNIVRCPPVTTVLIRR

Another assay deals with T11, SYNJ2BP, P57105.
T11 sequence (P57105 8-110, limits assumed, looked up): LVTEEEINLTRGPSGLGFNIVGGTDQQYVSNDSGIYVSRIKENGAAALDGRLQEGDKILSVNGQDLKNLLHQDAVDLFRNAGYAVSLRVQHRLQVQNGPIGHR

For another assay, the target named is T12, APBA2_1, Q99767.
T12 sequence (Q99767 563-664, limits assumed, looked up): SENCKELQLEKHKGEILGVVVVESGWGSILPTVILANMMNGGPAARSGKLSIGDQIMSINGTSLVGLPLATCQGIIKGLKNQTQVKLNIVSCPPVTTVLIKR

The next assay deals with T13, SNTA1, Q13424.
T13 sequence (Q13424 82-180, limits assumed, looked up): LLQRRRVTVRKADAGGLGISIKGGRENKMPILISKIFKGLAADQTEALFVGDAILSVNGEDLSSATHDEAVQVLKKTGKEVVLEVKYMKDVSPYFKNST

The target of a further assay is T14, APBA2_2, Q99767.
T14 sequence (Q99767 654-744, limits assumed, looked up): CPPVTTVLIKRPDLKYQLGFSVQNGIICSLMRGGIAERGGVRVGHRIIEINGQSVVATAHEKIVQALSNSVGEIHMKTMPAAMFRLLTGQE

Setting [1] is: plain residues with an end cap or a label only (N-terminal biotin on a linker: ttds).
Setting [2] is: plain residues with an end cap or a label only (N-terminal biotin on a linker: ahx).
Setting [3] is: plain residues with an end cap or a label only (N-terminal biotin on a linker: none).

As a reminder, the pKd is the negative decadic logarithm of the Kd, by convention in mol/L.

Inadl_3, Q8NI35, sequence (Q8NI35 359-469): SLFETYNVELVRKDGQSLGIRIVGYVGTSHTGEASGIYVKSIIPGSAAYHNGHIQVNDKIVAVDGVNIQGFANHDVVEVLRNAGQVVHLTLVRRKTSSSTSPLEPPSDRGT
DLG4_1, P78352, sequence (P78352 62-152): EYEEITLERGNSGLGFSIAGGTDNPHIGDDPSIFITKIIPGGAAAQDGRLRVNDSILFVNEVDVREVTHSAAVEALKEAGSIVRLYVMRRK
MAGI2_5, Q86UL8, sequence (Q86UL8 915-1017): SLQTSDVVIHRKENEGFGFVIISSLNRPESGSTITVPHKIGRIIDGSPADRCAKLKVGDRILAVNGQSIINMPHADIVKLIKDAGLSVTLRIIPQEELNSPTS
MAGI1_2, Q96QZ7, sequence (Q96QZ7 456-580): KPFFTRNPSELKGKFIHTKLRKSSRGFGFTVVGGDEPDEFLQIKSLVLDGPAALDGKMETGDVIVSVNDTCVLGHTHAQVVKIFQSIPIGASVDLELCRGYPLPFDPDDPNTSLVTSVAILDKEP
Inadl_4, Q8NI35, sequence (Q8NI35 547-651): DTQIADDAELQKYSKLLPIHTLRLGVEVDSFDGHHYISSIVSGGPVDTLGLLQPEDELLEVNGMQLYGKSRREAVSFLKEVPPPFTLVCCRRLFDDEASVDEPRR
Inadl_9, Q8NI35, sequence (Q8NI35 1530-1615): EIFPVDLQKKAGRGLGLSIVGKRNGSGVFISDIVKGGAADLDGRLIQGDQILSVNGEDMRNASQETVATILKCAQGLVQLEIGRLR

B1: HPV73-E6, Q82005 (peptide)
chain: SGSRPSATVV
On to B1, for which the pKd result in the assay with TIAM2, Q8IVF5 (setting [1]) is “below the threshold”; with Inadl_9, Q8NI35 (setting [1]), 3.59; in the assay with MAGI2_5, Q86UL8 (setting [1]), 3.7; with GRIP1_2, Q9Y3R0 (setting [1]), “below the threshold”; with PDZD7_3, Q9H5P4 (setting [1]), 4.7; with Inadl_4, Q8NI35 (setting [1]), “below the threshold”. The pKd in the assay with RAPGEF6, Q8TEU7 (setting [1]) is 3.57; in the assay with MAGI1_2, Q96QZ7 (setting [1]), 4.15; with GRIP1_3, Q9Y3R0 (setting [1]), “below the threshold”; in the assay with TX1BP3, O14907 (setting [1]), “below the threshold”; in the assay with DLG1_3, Q12959 (setting [1]) it was “below the threshold”; in the assay with LIN7C, Q9NUP9 (setting [1]), 3.81. Moreover, the negative logarithm of the Kd (pKd) in the assay with DLG1_1, Q12959 (setting [1]) was 3.89; with Inadl_3, Q8NI35 (setting [1]), “below the threshold”; with DFNB31_3, Q9P202 (setting [1]), “below the threshold”; with HTRA4, P83105 (setting [1]), 3.86; with APBA1_1, Q02410 (setting [1]), “below the threshold”; in the assay with DLG4_1, P78352 (setting [1]), 3.97. Moreover, the pKd with SYNJ2BP, P57105 (setting [1]) is 3.71; with APBA2_1, Q99767 (setting [1]), “below the threshold”; with SNTA1, Q13424 (setting [1]) it was 3.54; with APBA2_2, Q99767 (setting [1]) it was “below the threshold”.

B2: LNX2, Q8N448 (peptide)
chain: TVICWPGSLV
Turning to B2, the pKd entry with TIAM2, Q8IVF5 (setting [2]) is “below the threshold”; with Inadl_9, Q8NI35 (setting [2]), 3.99; in the assay with MAGI2_5, Q86UL8 (setting [2]), 4.35; in the assay with GRIP1_2, Q9Y3R0 (setting [2]), “below the threshold”; with PDZD7_3, Q9H5P4 (setting [2]), 4.5; with Inadl_4, Q8NI35 (setting [2]), “below the threshold”. For the same molecule, the pKd result is “below the threshold” in the assay with RAPGEF6, Q8TEU7 (setting [2]); 3.85 with MAGI1_2, Q96QZ7 (setting [2]); “below the threshold” with GRIP1_3, Q9Y3R0 (setting [2]); 4.59 with TX1BP3, O14907 (setting [2]); 4.32 with DLG1_3, Q12959 (setting [2]); 4.98 with LIN7C, Q9NUP9 (setting [2]). The pKd in the assay with DLG1_1, Q12959 (setting [2]) was 4.21; with Inadl_3, Q8NI35 (setting [2]), 4.19; with DFNB31_3, Q9P202 (setting [2]), “below the threshold”; in the assay with HTRA4, P83105 (setting [2]), 4.45; in the assay with APBA1_1, Q02410 (setting [2]), “below the threshold”; with DLG4_1, P78352 (setting [2]), 4.44. In addition, the pKd is 5.53 with SYNJ2BP, P57105 (setting [2]); “below the threshold” with APBA2_1, Q99767 (setting [2]); 3.96 with SNTA1, Q13424 (setting [2]); “below the threshold” with APBA2_2, Q99767 (setting [2]).

B3: SARS-CoV2-E, P0DTC4 (peptide)
chain: NLNSSRVPDLLV
B3: the pKd entry with TIAM2, Q8IVF5 (setting [3]) is given as “below the threshold”; in the assay with Inadl_9, Q8NI35 (setting [3]), “below the threshold”; with MAGI2_5, Q86UL8 (setting [3]), “below the threshold”; with GRIP1_2, Q9Y3R0 (setting [3]), “below the threshold”; with PDZD7_3, Q9H5P4 (setting [3]) it was “below the threshold”; in the assay with Inadl_4, Q8NI35 (setting [3]) it was “below the threshold”. Further, the pKd entry with RAPGEF6, Q8TEU7 (setting [3]) is “below the threshold”; in the assay with MAGI1_2, Q96QZ7 (setting [3]), “below the threshold”; in the assay with GRIP1_3, Q9Y3R0 (setting [3]), “below the threshold”; in the assay with TX1BP3, O14907 (setting [3]), “below the threshold”; with DLG1_3, Q12959 (setting [3]) it was “below the threshold”; in the assay with LIN7C, Q9NUP9 (setting [3]), “below the threshold”. The pKd entry is “below the threshold” with DLG1_1, Q12959 (setting [3]); 3.47 in the assay with Inadl_3, Q8NI35 (setting [3]); “below the threshold” with DFNB31_3, Q9P202 (setting [3]); “below the threshold” with HTRA4, P83105 (setting [3]); “below the threshold” in the assay with APBA1_1, Q02410 (setting [3]); “below the threshold” in the assay with DLG4_1, P78352 (setting [3]). The pKd entry is “below the threshold” with SYNJ2BP, P57105 (setting [3]); “below the threshold” with APBA2_1, Q99767 (setting [3]); “below the threshold” with SNTA1, Q13424 (setting [3]); “below the threshold” with APBA2_2, Q99767 (setting [3]).

B4: OTULIN, Q96BN8 (peptide)
chain: PVRVCEETSL
On to B4, for which the pKd result in the assay with TIAM2, Q8IVF5 (setting [1]) is “below the threshold”; with Inadl_9, Q8NI35 (setting [1]) it was “below the threshold”; with MAGI2_5, Q86UL8 (setting [1]) it was 4.13; with GRIP1_2, Q9Y3R0 (setting [1]), 3.69; with PDZD7_3, Q9H5P4 (setting [1]), 4.41; in the assay with Inadl_4, Q8NI35 (setting [1]), “below the threshold”. The pKd entry in the assay with RAPGEF6, Q8TEU7 (setting [1]) was “below the threshold”; with MAGI1_2, Q96QZ7 (setting [1]), 4.01; with GRIP1_3, Q9Y3R0 (setting [1]), “below the threshold”; in the assay with TX1BP3, O14907 (setting [1]), 4.37; in the assay with DLG1_3, Q12959 (setting [1]), 4.14; in the assay with LIN7C, Q9NUP9 (setting [1]), 4.06. The pKd is 4.35 with DLG1_1, Q12959 (setting [1]); 3.66 with Inadl_3, Q8NI35 (setting [1]); 3.49 in the assay with DFNB31_3, Q9P202 (setting [1]); “below the threshold” with HTRA4, P83105 (setting [1]); “below the threshold” in the assay with APBA1_1, Q02410 (setting [1]); 4.11 with DLG4_1, P78352 (setting [1]). Moreover, the pKd is 4.74 with SYNJ2BP, P57105 (setting [1]); “below the threshold” with APBA2_1, Q99767 (setting [1]); 4.53 in the assay with SNTA1, Q13424 (setting [1]); 3.51 with APBA2_2, Q99767 (setting [1]).

B5: ACVR2A, P27037 (peptide)
chain: VDFPPKESSL
Regarding B5, the pKd result with TIAM2, Q8IVF5 (setting [1]) was “below the threshold”; with Inadl_9, Q8NI35 (setting [1]), “below the threshold”; with MAGI2_5, Q86UL8 (setting [1]), “below the threshold”; in the assay with GRIP1_2, Q9Y3R0 (setting [1]) it was “below the threshold”; in the assay with PDZD7_3, Q9H5P4 (setting [1]), 3.61; with Inadl_4, Q8NI35 (setting [1]) it was “below the threshold”. The pKd result with RAPGEF6, Q8TEU7 (setting [1]) is “below the threshold”; with MAGI1_2, Q96QZ7 (setting [1]), “below the threshold”; with GRIP1_3, Q9Y3R0 (setting [1]), “below the threshold”; in the assay with TX1BP3, O14907 (setting [1]), 4.13; with DLG1_3, Q12959 (setting [1]) it was 4.11; with LIN7C, Q9NUP9 (setting [1]), 3.73. For the same molecule, the pKd is 3.71 with DLG1_1, Q12959 (setting [1]); “below the threshold” with Inadl_3, Q8NI35 (setting [1]); “below the threshold” in the assay with DFNB31_3, Q9P202 (setting [1]); “below the threshold” with HTRA4, P83105 (setting [1]); “below the threshold” with APBA1_1, Q02410 (setting [1]); “below the threshold” in the assay with DLG4_1, P78352 (setting [1]). In addition, the pKd in the assay with SYNJ2BP, P57105 (setting [1]) was 4.53; with APBA2_1, Q99767 (setting [1]), “below the threshold”; with SNTA1, Q13424 (setting [1]) it was 4.28; with APBA2_2, Q99767 (setting [1]), “below the threshold”.
